alkaline phosphatase tag = alkaline phosphatase tag, N-terminal fusion
Columns and labels:
[1] = tested on: HEK293-RhoA/NgR/p75 cells; test: ACR (actin cytoskeletal rearrangement) assay with image analysis; assay type: cell-based, human
Procedure: 1×10^4 cells were transferred into microtiter plates with 96 wells two days before the stimulation. The cells were stimulated with a suitable reagent (e.g. LPA or AP-Nogo-66) in culture medium (RPMI-Glutamax) comprising 5% FCS. After a stimulation period of 5 to 10 minutes, the activation was stopped with cold PBS. The cells were fixed with 3-4% strength paraformaldehyde solution, permeabilized with PBS comprising 0.2% Triton X-100, and incubated with phalloidin Alexa 568 or 488 for 30-45 minutes. Incubation with DAPI additionally took place for 5 minutes for nuclear staining. The cells were visualized with the aid of an epifluorescence microscope (Axiovert 25). Fluorescence micrograms were recorded using a cooled Zeiss CCD camera.
HEK293-Rho/NgR/p75 cells were transferred into microtiter plates with 96 wells (Biocoat Poly D-Lysine Black Clear Plates from Becton Dickinson, Heidelberg, order number 356640). After a starvation period (cf. above) of 2 hours, the cells were preincubated with PI-PLC (1 U/ml) for 30 minutes or not treated. The cells were subsequently stimulated with LPA or AP-Nogo-66 or remained unstimulated. Fluorescence micrograms were obtained as described above. Representative appearances are depicted in FIG. 5b.
Fluorescence micrograms (FIG. 6a) obtained from an ACR assay carried out according to the invention (stimulation of HEK293-RhoA/NgR/p75 cells with 10 μg/ml AP-Nogo-66) were investigated with various high content screening systems, e.g. with the Atto Pathway HT image analysis system from BD Bioimages (Becton Dickinson) or the Discovery 1 from Molecular Devices, for changes in the cell morphology. […] The Pathway HT was used to determine the number of so-called cytoplasmic vertices (cytoplasmic vertices are a measure of changes in the cytoskeleton which describes inter alia the contraction of actin filaments and the formation of stress fibers). The result of this evaluation is depicted in FIG. 6c.
To analyze the reported morphological changes, 1×10^4 cells per well were seeded into 96-well plates, fixed, the actin filaments were stained with FITC-labelled Alexa Phalloidin and the nuclei were visualized with DAPI. The plates were subjected to our high-content screening (HCS) system, the Pathway HT (Becton Dickinson) and the corresponding image analysis software Attovision. Analyzing the perimeter of the actin cytoskeleton achieved the most significant difference when comparing stimulated with unstimulated samples. The perimeter of the actin cytoskeleton is calculated as “cytoplasmic verticies”, which is a measure for the number of turns or changes in direction that lines outlining the cell follow.

[2] = biological target: human Nogo receptor (hNgR) (human) (UniProt Q9BZR6); test: cell-based or functional assay
Rho = test: RBD assay (pulldown of GTP-bound Rho with GST-RBD beads, immunoblot); assay type: cell-based, human
Procedure: The HEK cells either remained unstimulated or were stimulated (e.g. with LPA or AP-Nogo-66) for a period of from 5 to 10 minutes after a 2-hour starvation period (by incubation with serum-free RPMI-Glutamax). HEK cells (1×10^6 per well) were cultured in 6-well plates (volume of mixture 1000 μl/well). Before the stimulation, a particular volume appropriate for the concentration of the AP-Nogo66 batch employed (e.g. 100 μl of medium was removed from each well and the volume was correspondingly made up again to 1000 μl with AP-Nogo66, to result in a defined final concentration of AP-Nogo66 on the cells. Following the stimulation, the AP-Nogo66 medium solution was completely removed by aspiration. The cells were then washed with ice-cold PBS (phosphate-buffered saline) and lyzed in 50 mM Tris, pH 7.5 (comprising NaCl (500 mM), EDTA (1 mM), MgCl2 […], 10% glycerol, NaF (5 mM), DTT (1 mM), 1% Nonidet P-40 in combination with the protease inhibitors PMSF (1 mM), leupeptin (1 μg/ml) and aprotinin (1 μg/ml)).
Cell lysates (e.g. from HEK293-RhoA and HEK293-RhoA/NgR/p75; 400 μg of total protein in each case) were incubated with 40 μg of the GST-RBD beads (comprising recombinant fusion protein composed of glutathione S-transferase and RBD with amino acids 7 to 89 of human rhotekin) at 4° C. for 1 hour. After the beads had been washed 3 times with lysis buffer, the bound protein (GTP-bound, biochemically active Rho) was analyzed by SDS-PAGE and immunoblotting. The immunoblotting was carried out with anti-Rho antibody and the visualization took place by incubation with a horseradish peroxidase-conjugated secondary antibody and chemiluminescence enhancer (ECL).
It was investigated, using the RBD assay described above, whether Rho is activated after stimulation of NgR with myelin proteins, such as Nogo-66, in HEK293-Rho cells which express NgR and p75 (HEK293-Rho/NgR/p75). The results are depicted in appended FIG. 5a.

NgR = biological target: T1, NgR (Homo sapiens, UniProt Q9BZR6); test: Preliminary experiments on functional activity of tagged Nogo66 ligands; conditions: not shown
T1 sequence (Q9BZR6 27-447): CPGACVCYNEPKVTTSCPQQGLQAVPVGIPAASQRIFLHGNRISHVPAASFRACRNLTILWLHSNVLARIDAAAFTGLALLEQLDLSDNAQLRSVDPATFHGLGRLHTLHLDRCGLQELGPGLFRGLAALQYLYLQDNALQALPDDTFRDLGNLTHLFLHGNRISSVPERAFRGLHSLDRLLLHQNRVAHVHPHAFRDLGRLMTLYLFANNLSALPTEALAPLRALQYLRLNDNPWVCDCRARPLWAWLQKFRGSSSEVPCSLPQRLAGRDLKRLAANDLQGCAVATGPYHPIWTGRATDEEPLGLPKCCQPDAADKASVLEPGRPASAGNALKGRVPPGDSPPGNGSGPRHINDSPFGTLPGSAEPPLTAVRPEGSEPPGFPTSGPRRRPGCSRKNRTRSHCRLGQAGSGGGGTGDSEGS

[3] = HEK293-RhoA/NgR/p75 cells, stimulated for 5 minutes

C[C@@H](N)[C@H]1CC[C@H](C(=O)Nc2ccncc2)CC1 [Y-27632, reference compound]
inhibition of AP-Nogo66 induced Rho-dependent cell rounding and shrinkage ([1]; 15 min pre-treatment before stimulation with 20 nM AP-Nogo66): abolished AP-Nogo66 induced Rho-dependent cell rounding and shrinkage in a dose-dependent manner
IC50 for the inhibitory effect on the actin cytoskeletal rearrangement ([1]; 15 min pre-treatment before stimulation with 20 nM AP-Nogo66, no number given): ranges in the order of magnitude of what had described for this broadly used compound

AP-Nogo66 (Nogo-66, comprising an N-terminal alkaline phosphatase Tag) (from UniProt Q9NQC3 1055-1120) (ligand)
maximal reduction of the average perimeter (cytoplasmic vertices) against untreated control cells, at 20 nM AP-Nogo66 [2]: 80 to 90%

L-alpha-lysophosphatidic acid [LPA, reference compound]
Rho activation (Rho; [3]): rapid activation of Rho
Rho activation (Rho; HEK wild-type cells, LPA stimulation (data not shown)): rapid activation of Rho

B1: AP-Nogo66: Nogo-66, comprising an N-terminal alkaline phosphatase Tag; NgR receptor ligand (protein)
chain: {alkaline phosphatase tag}-RIYKGVIQAIQKSDEGHPFRAYLESEVAISEELVQKYSNSALGHVNCTIKELRRLFLVDDLVDSLK
modifications: not fully specified
notes: Nogo-66, comprising an N-terminal alkaline phosphatase Tag; NgR receptor ligand
time to maximum of morphological changes ([1]; 20 nM AP-Nogo66): 15 min
maximal reduction of the average perimeter (cytoplasmic verticies) in comparison to untreated control cells ([1]; 20 nM AP-Nogo66, 10 min stimulation, Attovision analysis): 80-90%
time to morphological changes ([1]; 20 nM AP-Nogo66, onset of actin cytoskeletal rearrangement): ≤ 5 min
morphological change of the cells after stimulation ([1]; 10 μg/ml AP-Nogo-66, mean cell length and cytoplasmic vertices): significant, optically analyzable morphological change
morphological changes after PI-PLC treatment and stimulation ([1]; PI-PLC (1 U/ml) preincubation for 30 minutes): not observable
functional activity (NgR): functionally active
Rho activation after release of NgR from the cell membrane (Rho; HEK293-RhoA/NgR/p75 cells treated with 1 U/ml PI-PLC 30 minutes before stimulation): no Rho activation
Rho activation (Rho; [3]): induced Rho activity

B2: GST-Nogo66: otherwise tagged Nogo66 (GST tag) (protein)
chain: RIYKGVIQAIQKSDEGHPFRAYLESEVAISEELVQKYSNSALGHVNCTIKELRRLFLVDDLVDSLK
modifications: not fully specified (N-terminus); also: GST tag, end not given here (dimerising)
functional activity (NgR): not
